Experimental data reported in PMC9482650, “Quantitative fragmentomics allow affinity mapping of interactomes” (Nature Communications, 2022).

T1: DLG3_2, Q92796
T1 sequence (Q92796 221-321, limits assumed, looked up): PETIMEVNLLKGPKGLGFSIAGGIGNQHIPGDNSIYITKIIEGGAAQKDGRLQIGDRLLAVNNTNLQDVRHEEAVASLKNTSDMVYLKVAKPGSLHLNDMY

T2: GRIP1_2, Q9Y3R0
T2 sequence (Q9Y3R0 145-248, limits assumed, looked up): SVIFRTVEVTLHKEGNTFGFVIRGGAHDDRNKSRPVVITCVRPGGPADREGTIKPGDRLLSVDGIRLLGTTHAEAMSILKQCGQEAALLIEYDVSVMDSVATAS

T3: LNX2_2, Q8N448
T3 sequence (Q8N448 334-432, limits assumed, looked up): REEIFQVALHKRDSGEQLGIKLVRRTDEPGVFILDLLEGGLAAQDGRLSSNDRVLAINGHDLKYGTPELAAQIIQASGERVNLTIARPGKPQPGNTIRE

T4: APBA3_1, O96018
T4 sequence (O96018 389-490, limits assumed, looked up): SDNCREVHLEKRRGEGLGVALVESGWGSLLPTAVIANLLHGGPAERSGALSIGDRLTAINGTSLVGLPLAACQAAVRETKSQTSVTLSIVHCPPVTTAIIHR

T5: TX1BP3, O14907
T5 sequence (O14907 10-122, limits assumed, looked up): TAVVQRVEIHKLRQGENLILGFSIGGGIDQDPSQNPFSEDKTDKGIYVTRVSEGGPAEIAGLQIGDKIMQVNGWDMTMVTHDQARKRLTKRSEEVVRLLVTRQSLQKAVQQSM

T6: DLG3_1, Q92796
T6 sequence (Q92796 125-227, limits assumed, looked up): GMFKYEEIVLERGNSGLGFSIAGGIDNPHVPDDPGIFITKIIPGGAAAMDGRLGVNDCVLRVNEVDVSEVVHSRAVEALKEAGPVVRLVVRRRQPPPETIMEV

T7: RADIL, Q96JH8
T7 sequence (Q96JH8 971-1071, limits assumed, looked up): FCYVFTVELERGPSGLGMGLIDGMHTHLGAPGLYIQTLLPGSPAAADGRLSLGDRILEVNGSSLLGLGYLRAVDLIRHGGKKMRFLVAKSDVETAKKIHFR

T8: APBA1_1, Q02410
T8 sequence (Q02410 651-752, limits assumed, looked up): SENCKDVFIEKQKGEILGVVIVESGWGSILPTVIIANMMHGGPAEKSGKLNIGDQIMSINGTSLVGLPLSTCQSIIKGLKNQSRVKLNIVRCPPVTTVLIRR

T9: MPP2, Q14168
T9 sequence (Q14168 180-250, limits assumed, looked up): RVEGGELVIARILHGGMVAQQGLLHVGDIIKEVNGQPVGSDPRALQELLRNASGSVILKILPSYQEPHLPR

T10: SNTB1, Q13884
T10 sequence (Q13884 107-205, limits assumed, looked up): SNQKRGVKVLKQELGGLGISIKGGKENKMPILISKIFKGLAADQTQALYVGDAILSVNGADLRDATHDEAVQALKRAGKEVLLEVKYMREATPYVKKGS

T11: APBA1_2, Q02410
T11 sequence (Q02410 742-832, limits assumed, looked up): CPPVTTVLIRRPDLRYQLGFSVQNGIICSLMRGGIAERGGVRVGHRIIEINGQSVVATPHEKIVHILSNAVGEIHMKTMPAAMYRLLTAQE

T12: MPDZ_5, O75970
T12 sequence (O75970 695-796, limits assumed, looked up): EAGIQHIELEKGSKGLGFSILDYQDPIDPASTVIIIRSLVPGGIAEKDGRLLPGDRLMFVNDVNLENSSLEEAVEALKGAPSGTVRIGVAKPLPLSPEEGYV


Biological target: T1, DLG3_2, Q92796
Assay: holdup assay
Parameters: key: below the threshold = too weak to quantify, mostly under pKd 3.1 to 4
Conditions: plain residues with an end cap or a label only (N-terminal biotin on a linker: ado-ado)

Row | pKd | Binder
1 | 4.22 | TKEIPNCTSV [SORCS3, Q9UPU3]

Biological target: TJP1_2, Q07157
Assay: holdup assay
Parameters: key: below the threshold = too weak to quantify, mostly under pKd 3.1 to 4
Conditions: plain residues with an end cap or a label only (N-terminal biotin on a linker: ado-ado)

Sequence of TJP1_2, Q07157 (Q07157 181-274): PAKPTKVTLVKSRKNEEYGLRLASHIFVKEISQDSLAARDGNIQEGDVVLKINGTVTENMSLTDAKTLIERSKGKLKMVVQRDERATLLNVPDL

Row | pKd | Binder
2 | below the threshold | TKEIPNCTSV [SORCS3, Q9UPU3]

Biological target: LNX1_2, Q8TBB1
Assay: holdup assay
Parameters: key: below the threshold = too weak to quantify, mostly under pKd 3.1 to 4
Conditions: plain residues with an end cap or a label only (N-terminal biotin on a linker: ado-ado)

Sequence of LNX1_2, Q8TBB1 (Q8TBB1 371-470): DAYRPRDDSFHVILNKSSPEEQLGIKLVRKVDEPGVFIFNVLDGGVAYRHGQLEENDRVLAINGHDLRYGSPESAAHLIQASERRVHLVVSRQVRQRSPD

Row | pKd | Binder
3 | 3.78 | TKEIPNCTSV [SORCS3, Q9UPU3]

Biological target: T2, GRIP1_2, Q9Y3R0
Assay: holdup assay
Parameters: key: below the threshold = too weak to quantify, mostly under pKd 3.1 to 4
Conditions: plain residues with an end cap or a label only (N-terminal biotin on a linker: ado-ado)

Row | pKd | Binder
4 | below the threshold | TKEIPNCTSV [SORCS3, Q9UPU3]

Biological target: T3, LNX2_2, Q8N448
Assay: holdup assay
Parameters: key: below the threshold = too weak to quantify, mostly under pKd 3.1 to 4
Conditions: plain residues with an end cap or a label only (N-terminal biotin on a linker: ado-ado)

Row | pKd | Binder
5 | 4.52 | TKEIPNCTSV [SORCS3, Q9UPU3]

Biological target: T4, APBA3_1, O96018
Assay: holdup assay
Parameters: key: below the threshold = too weak to quantify, mostly under pKd 3.1 to 4
Conditions: plain residues with an end cap or a label only (N-terminal biotin on a linker: ado-ado)

Row | pKd | Binder
6 | below the threshold | TKEIPNCTSV [SORCS3, Q9UPU3]

Biological target: DLG4_3, P78352
Assay: holdup assay
Parameters: key: below the threshold = too weak to quantify, mostly under pKd 3.1 to 4
Conditions: plain residues with an end cap or a label only (N-terminal biotin on a linker: ado-ado)

Sequence of DLG4_3, P78352 (P78352 306-403): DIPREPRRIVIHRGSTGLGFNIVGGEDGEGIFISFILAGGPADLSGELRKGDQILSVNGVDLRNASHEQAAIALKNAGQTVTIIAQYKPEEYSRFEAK

Row | pKd | Binder
7 | 3.71 | TKEIPNCTSV [SORCS3, Q9UPU3]

Biological target: PICK1, Q9NRD5
Assay: holdup assay
Parameters: key: below the threshold = too weak to quantify, mostly under pKd 3.1 to 4
Conditions: plain residues with an end cap or a label only (N-terminal biotin on a linker: ado-ado)

Sequence of PICK1, Q9NRD5 (Q9NRD5 17-115): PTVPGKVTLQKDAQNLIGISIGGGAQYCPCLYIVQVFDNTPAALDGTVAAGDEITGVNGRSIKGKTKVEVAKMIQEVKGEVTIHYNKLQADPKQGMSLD

Row | pKd | Binder
8 | 4.17 | TKEIPNCTSV [SORCS3, Q9UPU3]

Biological target: PDZRN4_1, Q6ZMN7
Assay: holdup assay
Parameters: key: below the threshold = too weak to quantify, mostly under pKd 3.1 to 4
Conditions: plain residues with an end cap or a label only (N-terminal biotin on a linker: ado-ado)

Sequence of PDZRN4_1, Q6ZMN7 (Q6ZMN7 213-318): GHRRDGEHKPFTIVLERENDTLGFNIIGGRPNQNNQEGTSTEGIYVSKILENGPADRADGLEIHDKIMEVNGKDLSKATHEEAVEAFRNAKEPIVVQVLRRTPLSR

Row | pKd | Binder
9 | 3.94 | TKEIPNCTSV [SORCS3, Q9UPU3]

Biological target: DLG2_2, Q15700
Assay: holdup assay
Parameters: key: below the threshold = too weak to quantify, mostly under pKd 3.1 to 4
Conditions: plain residues with an end cap or a label only (N-terminal biotin on a linker: ado-ado)

Sequence of DLG2_2, Q15700 (Q15700 189-283): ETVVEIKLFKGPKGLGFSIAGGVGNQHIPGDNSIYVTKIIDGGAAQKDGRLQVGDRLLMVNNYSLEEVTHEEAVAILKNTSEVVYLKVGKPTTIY

Row | pKd | Binder
10 | 4.1 | TKEIPNCTSV [SORCS3, Q9UPU3]

Biological target: T5, TX1BP3, O14907
Assay: holdup assay
Parameters: key: below the threshold = too weak to quantify, mostly under pKd 3.1 to 4
Conditions: plain residues with an end cap or a label only (N-terminal biotin on a linker: ado-ado)

Row | pKd | Binder
11 | 4.47 | TKEIPNCTSV [SORCS3, Q9UPU3]

Biological target: T6, DLG3_1, Q92796
Assay: holdup assay
Parameters: key: below the threshold = too weak to quantify, mostly under pKd 3.1 to 4
Conditions: plain residues with an end cap or a label only (N-terminal biotin on a linker: ado-ado)

Row | pKd | Binder
12 | 3.64 | TKEIPNCTSV [SORCS3, Q9UPU3]

Biological target: CASK, O14936
Assay: holdup assay
Parameters: key: below the threshold = too weak to quantify, mostly under pKd 3.1 to 4
Conditions: plain residues with an end cap or a label only (N-terminal biotin on a linker: ado-ado)

Sequence of CASK, O14936 (O14936 487-570): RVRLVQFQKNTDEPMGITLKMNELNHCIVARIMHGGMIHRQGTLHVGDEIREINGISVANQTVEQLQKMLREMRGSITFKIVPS

Row | pKd | Binder
13 | below the threshold | TKEIPNCTSV [SORCS3, Q9UPU3]

Biological target: T7, RADIL, Q96JH8
Assay: holdup assay
Parameters: key: below the threshold = too weak to quantify, mostly under pKd 3.1 to 4
Conditions: plain residues with an end cap or a label only (N-terminal biotin on a linker: ado-ado)

Row | pKd | Binder
14 | 4.05 | TKEIPNCTSV [SORCS3, Q9UPU3]

Biological target: ARHGEF12, Q9NZN5-2
Assay: holdup assay
Parameters: key: below the threshold = too weak to quantify, mostly under pKd 3.1 to 4
Conditions: plain residues with an end cap or a label only (N-terminal biotin on a linker: ado-ado)

Sequence of ARHGEF12, Q9NZN5-2 (Q9NZN5 other isoform, or with tags, fused parts or gaps): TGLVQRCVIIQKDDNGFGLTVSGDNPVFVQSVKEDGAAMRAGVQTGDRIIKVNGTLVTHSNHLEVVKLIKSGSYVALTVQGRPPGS

Row | pKd | Binder
15 | 4.54 | TKEIPNCTSV [SORCS3, Q9UPU3]

Biological target: T8, APBA1_1, Q02410
Assay: holdup assay
Parameters: key: below the threshold = too weak to quantify, mostly under pKd 3.1 to 4
Conditions: plain residues with an end cap or a label only (N-terminal biotin on a linker: ado-ado)

Row | pKd | Binder
16 | below the threshold | TKEIPNCTSV [SORCS3, Q9UPU3]

Biological target: TJP2_1, Q9UDY2
Assay: holdup assay
Parameters: key: below the threshold = too weak to quantify, mostly under pKd 3.1 to 4
Conditions: plain residues with an end cap or a label only (N-terminal biotin on a linker: ado-ado)

Sequence of TJP2_1, Q9UDY2 (Q9UDY2 24-128): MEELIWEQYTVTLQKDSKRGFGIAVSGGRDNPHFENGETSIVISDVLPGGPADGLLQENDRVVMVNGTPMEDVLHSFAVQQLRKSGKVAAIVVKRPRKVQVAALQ

Row | pKd | Binder
17 | below the threshold | TKEIPNCTSV [SORCS3, Q9UPU3]

Biological target: MAGI2_4, Q86UL8
Assay: holdup assay
Parameters: key: below the threshold = too weak to quantify, mostly under pKd 3.1 to 4
Conditions: plain residues with an end cap or a label only (N-terminal biotin on a linker: ado-ado)

Sequence of MAGI2_4, Q86UL8 (Q86UL8 772-865): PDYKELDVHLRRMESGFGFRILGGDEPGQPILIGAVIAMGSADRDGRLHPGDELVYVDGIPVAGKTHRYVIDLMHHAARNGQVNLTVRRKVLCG

Row | pKd | Binder
18 | 4.16 | TKEIPNCTSV [SORCS3, Q9UPU3]

Biological target: LAP2, Q96RT1
Assay: holdup assay
Parameters: key: below the threshold = too weak to quantify, mostly under pKd 3.1 to 4
Conditions: plain residues with an end cap or a label only (N-terminal biotin on a linker: ado-ado)

Sequence of LAP2, Q96RT1 (Q96RT1 other isoform, or with tags, fused parts or gaps): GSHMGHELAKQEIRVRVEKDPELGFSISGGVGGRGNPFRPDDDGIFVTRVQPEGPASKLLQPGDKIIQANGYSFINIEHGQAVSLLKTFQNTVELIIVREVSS

Row | pKd | Binder
19 | 3.98 | TKEIPNCTSV [SORCS3, Q9UPU3]

Biological target: T9, MPP2, Q14168
Assay: holdup assay
Parameters: key: below the threshold = too weak to quantify, mostly under pKd 3.1 to 4
Conditions: plain residues with an end cap or a label only (N-terminal biotin on a linker: ado-ado)

Row | pKd | Binder
20 | below the threshold | TKEIPNCTSV [SORCS3, Q9UPU3]

Biological target: T10, SNTB1, Q13884
Assay: holdup assay
Parameters: key: below the threshold = too weak to quantify, mostly under pKd 3.1 to 4
Conditions: plain residues with an end cap or a label only (N-terminal biotin on a linker: ado-ado)

Row | pKd | Binder
21 | 4.25 | TKEIPNCTSV [SORCS3, Q9UPU3]

Biological target: T11, APBA1_2, Q02410
Assay: holdup assay
Parameters: key: below the threshold = too weak to quantify, mostly under pKd 3.1 to 4
Conditions: plain residues with an end cap or a label only (N-terminal biotin on a linker: ado-ado)

Row | pKd | Binder
22 | 4.64 | TKEIPNCTSV [SORCS3, Q9UPU3]

Biological target: DLG1_2, Q12959
Assay: holdup assay
Parameters: key: below the threshold = too weak to quantify, mostly under pKd 3.1 to 4
Conditions: plain residues with an end cap or a label only (N-terminal biotin on a linker: ado-ado)

Sequence of DLG1_2, Q12959 (Q12959 314-412): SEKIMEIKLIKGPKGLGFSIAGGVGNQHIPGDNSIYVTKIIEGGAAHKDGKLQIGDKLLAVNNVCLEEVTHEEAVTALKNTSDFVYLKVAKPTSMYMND

Row | pKd | Binder
23 | 4.43 | TKEIPNCTSV [SORCS3, Q9UPU3]

Biological target: Inadl_10, Q8NI35
Assay: holdup assay
Parameters: key: below the threshold = too weak to quantify, mostly under pKd 3.1 to 4
Conditions: plain residues with an end cap or a label only (N-terminal biotin on a linker: ado-ado)

Sequence of Inadl_10, Q8NI35 (Q8NI35 1673-1763): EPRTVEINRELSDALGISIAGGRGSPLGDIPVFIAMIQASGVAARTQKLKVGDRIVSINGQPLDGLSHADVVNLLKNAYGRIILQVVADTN

Row | pKd | Binder
24 | 3.95 | TKEIPNCTSV [SORCS3, Q9UPU3]

Biological target: T12, MPDZ_5, O75970
Assay: holdup assay
Parameters: key: below the threshold = too weak to quantify, mostly under pKd 3.1 to 4
Conditions: plain residues with an end cap or a label only (N-terminal biotin on a linker: ado-ado)

Row | pKd | Binder
25 | below the threshold | TKEIPNCTSV [SORCS3, Q9UPU3]

Biological target: MAGI3_2, Q5TCQ9
Assay: holdup assay
Parameters: key: below the threshold = too weak to quantify, mostly under pKd 3.1 to 4
Conditions: plain residues with an end cap or a label only (N-terminal biotin on a linker: ado-ado)

Sequence of MAGI3_2, Q5TCQ9 (Q5TCQ9 398-503): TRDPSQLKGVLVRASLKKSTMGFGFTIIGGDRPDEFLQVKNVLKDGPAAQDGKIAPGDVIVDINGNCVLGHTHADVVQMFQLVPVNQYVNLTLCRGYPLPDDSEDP

Row | pKd | Binder
26 | 4.67 | TKEIPNCTSV [SORCS3, Q9UPU3]
